Residue numbers refer to the chain shown, from its start.
Molecular target: T1, human Tie1 Fc (Homo sapiens, UniProt P35590)
T1 construct: selected against the Tie1 extracellular domain fused to human Fc or to a histidine purification tag
T1 sequence (P35590 22-759 limits assumed): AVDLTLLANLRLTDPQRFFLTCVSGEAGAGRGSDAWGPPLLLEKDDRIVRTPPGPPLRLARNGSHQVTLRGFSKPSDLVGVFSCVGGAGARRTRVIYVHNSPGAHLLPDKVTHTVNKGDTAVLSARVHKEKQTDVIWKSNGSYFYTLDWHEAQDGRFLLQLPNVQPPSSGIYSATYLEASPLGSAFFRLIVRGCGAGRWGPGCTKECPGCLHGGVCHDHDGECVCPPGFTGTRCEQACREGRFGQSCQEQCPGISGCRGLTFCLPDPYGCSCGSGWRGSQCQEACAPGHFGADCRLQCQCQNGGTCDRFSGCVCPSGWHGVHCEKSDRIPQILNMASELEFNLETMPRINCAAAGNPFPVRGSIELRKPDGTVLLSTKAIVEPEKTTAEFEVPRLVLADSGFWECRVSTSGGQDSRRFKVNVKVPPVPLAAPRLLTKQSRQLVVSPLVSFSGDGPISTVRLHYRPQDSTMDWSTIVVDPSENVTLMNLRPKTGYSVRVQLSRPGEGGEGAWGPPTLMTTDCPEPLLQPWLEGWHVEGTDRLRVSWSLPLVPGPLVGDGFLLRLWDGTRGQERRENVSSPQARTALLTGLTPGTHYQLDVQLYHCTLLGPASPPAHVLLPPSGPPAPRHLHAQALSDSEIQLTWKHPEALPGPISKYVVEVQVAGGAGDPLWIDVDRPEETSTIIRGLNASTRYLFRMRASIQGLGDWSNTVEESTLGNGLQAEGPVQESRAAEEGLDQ
Assay: ELISA on recombinant Tie1-Fc
Format: binding
Conditions: soluble Fab 5 or 1 μg per 100 μl; 500 or 50 ng antigen per well
Protocol: To evaluate if the conversion of any of the somatic mutations in the framework of E3 back to germline residues had any effect on binding activity the soluble Fabs were produced. The soluble expression vector containing the parental E3 Fab and the germlined E3 Fab construct were grown overnight at 30° C. in 2×TY broth containing 100 μg/ml ampicillin and 2% glucose and use 4 ml of this overnight culture to inoculate 400 ml of 2×TY broth containing 100 μg/ml ampicillin and 0.1% glucose. Cells were grow at 37° C. until an OD600 of 0.8-1.0, 1 mM IPTG was added and the culture was maintained at 30° C. for 4 hours. The cultures were spun down at 4,000 rpm for 15 min at 4 C. […] Dialyze against PBS using dialysis cassettes (SLIDE-A-LYSER™ Dialysis Cassettes, MWCO 10,000, Pierce, cat. no. 66380) and determine the protein concentration from the absorbance at 280 nm assuming that a 1 mg/ml solution has an absorbance of 0.86. The quality of the preparations can be analyzed by reducing and non-reducing SDS-PAGE.
Wells of an IMMULON™ 2 HB plate coated overnight with 500 ng or 50 ng of purified recombinant human Tie1-Fc target antigen per 100 microliters 0.1 M sodium bicarbonate buffer, pH 8.5. […] After washing the wells seven times 100 microliters TMB-H2O2 solution was added to each well and the plate read at 630 nm in an ELISA.

B1: parental E3 Fab: soluble Fab fragment of the parental E3 anti-Tie1 antibody (antibody, V domains shown)
VH: EVQLLESGGGLVQPGGSLRLSCAASGFTFSMYGMVWVRQAPGKGLEWVSVISPSGGNTGYADSVKGRFTISRDNSKNTLYLQVNSLRAEDTAVYYCARAPRGYSYGYYYWGQGTLVTVSSASTKGPSVFPLAPSSKSTSGG
VL: DIQMTQSPLSLSASVGDRVTITCRASQGIGHYLAWYQQKPGKVPKLLIYTASTLQSGVPSRFSGSGSGTDFTLTINSLQPEDVATYYCQQFNSYPHTFGQGTRLDIK
binding to recombinant human Tie1-Fc in ELISA: bound to the recombinant human Tie1-Fc target antigen

B2: germlined E3 Fab: soluble Fab of E3 with LC framework regions germlined to DPK4; LC variable SEQ ID NO:159 (antibody, V domains shown)
VH: B1 VH
VL: B1 VL with L9S, N76S, D105E
binding to recombinant human Tie1-Fc in ELISA: bound to the recombinant human Tie1-Fc target antigen
